Residue numbers refer to the chain shown, from its start. Like-named read-outs stand apart in the source and are kept apart here. Blank lines part the entries; values can stand above or below the binder they belong to.
How the values were obtained:
Experiment in all cases: pull-down
[1] = target: T1, GST-tagged Mgs1 (S. cerevisiae, UniProt P40151 1-587)
T1 sequence: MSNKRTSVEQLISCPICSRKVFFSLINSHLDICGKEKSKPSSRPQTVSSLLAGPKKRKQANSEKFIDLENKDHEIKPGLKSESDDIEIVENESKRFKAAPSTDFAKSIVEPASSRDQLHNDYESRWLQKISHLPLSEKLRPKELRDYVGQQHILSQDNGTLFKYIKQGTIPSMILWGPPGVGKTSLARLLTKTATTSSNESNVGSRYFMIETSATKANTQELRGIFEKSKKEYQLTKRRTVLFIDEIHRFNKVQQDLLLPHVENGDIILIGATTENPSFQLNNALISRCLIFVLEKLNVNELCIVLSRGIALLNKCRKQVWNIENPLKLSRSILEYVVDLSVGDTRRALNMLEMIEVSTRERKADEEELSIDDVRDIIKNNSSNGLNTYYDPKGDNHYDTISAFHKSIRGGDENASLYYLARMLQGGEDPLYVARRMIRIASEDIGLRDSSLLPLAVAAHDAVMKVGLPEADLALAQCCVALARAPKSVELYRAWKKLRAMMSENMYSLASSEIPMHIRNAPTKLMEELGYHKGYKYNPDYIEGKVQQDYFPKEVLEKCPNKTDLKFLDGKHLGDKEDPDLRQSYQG

[2] = target: T2, GST-tagged Mgs1* (D31A) (S. cerevisiae, UniProt P40151 1-587, D31A)
T2 sequence: T1 sequence with D31A

[3] = target: T1, GST-tagged Mgs1; remark: listed apart in the source
[4] = target: T2, GST-tagged Mgs1* (D31A); remark: listed apart in the source

binding result [1]: binds
binding result [2]: binds
B1: His6-tagged PCNA (natural protein)
chain: MLEAKFEEASLFKRIIDGFKDCVQLVNFQCKEDGIIAQAVDDSRVLLVSLEIGVEAFQEYRCDHPVTLGMDLTSLSKILRCGNNTDTLTLIADNTPDSIILLFEDTKKDRIAEYSLKLMDIDADFLKIEELQYDSTLSLPSSEFSKIVRDLSQLSDSINIMITKETIKFVADGDIGSGSVIIKPFVDMEHPETSIKLEMDQPVDLTFGAKYLLDIIKGSSLSDRVGIRLSSEAPALFQFDLKSGFLQFFLAPKFNDEE

binding result [3]: binds
binding result [4]: binds
B2: untagged PCNA (unmodified) (natural protein)
chain: B1 chain

Reference: paper PMC3245944 (Nucleic Acids Research, 2011)
